Holding throughout (type): biochemical
Substrate in series [1]: CC(C)(O/N=C(\C(=O)N[C@@H]1C(=O)N2C(C(=O)[O-])=C(C[N+]3(CCNC(=O)c4ccc(O)c(O)c4Cl)CCCC3)CS[C@H]12)c1csc(N)n1)C(=O)O
Description: Steady-state hydrolysis kinetics and UV difference spectra with purified IMP-1. The settings on record: other: FDC hydrolysis by IMP-1, 30 °C, pH 7.5.

Substrate in series [2]: CC(C)(O/N=C(\C(=O)N[C@@H]1C(=O)N2C(C(=O)[O-])=C(C[n+]3ccccc3)CS[C@H]12)c1csc(N)n1)C(=O)O
Description: Steady-state hydrolysis kinetics and UV difference spectra with purified NDM-1. To be noted: other: substrate hydrolysis by NDM-1, 30 °C, pH 7.5.

Substrate in series [3]: CC(C)(O/N=C(\C(=O)N[C@@H]1C(=O)N2C(C(=O)[O-])=C(C[N+]3(CCNC(=O)c4ccc(O)c(O)c4Cl)CCCC3)CS[C@H]12)c1csc(N)n1)C(=O)O
Described as above. To be noted: other: substrate hydrolysis by NDM-1, 30 °C, pH 7.5.

The results in this text go back to publication PMC12152739.

Broadly, the kcat is the number of substrate molecules converted per active site and unit of time at saturation. One may read the kcat/Km as the second-order rate constant that governs catalysis at low substrate concentration.

B1: IMP-1 (Serratia marcescens) (protein)
chain: TAAESLPDLKIEKLDEGVYVHTSFEEVNGWGVVPKHGLVVLVNAEAYLIDTPFTAKDTEKLVTWFVERGYKIKGSISSHFHSDSTGGIEWLNSRSIPTYASELTNELLKKDGKVQATNSFSGVNYWLVKNKIEVFYPGPGHTPDNVVVWLPERKILFGGCFIKPYGLGNLGDANIEAWPKSAKLLKSKYGKAKLVVPSHSEVGDASLLKLTLEQAVKGLNESKKPSKPSN
As for B1, the turnover number (kcat) in series [1] worked out at 1.25 ± 0.23 s⁻¹.

B2: NDM-1 (Klebsiella pneumoniae) (protein)
chain: METGDQRFGDLVFRQLAPNVWQHTSYLDMPGFGAVASNGLIVRDGGRVLVVDTAWTDDQTAQILNWIKQEINLPVALAVVTHAHQDKMGGMDALHAAGIATYANALSNQLAPQEGMVAAQHSLTFAANGWVEPATAPNFGPLKVFYPGPGHTSDNITVGIDGTDIAFGGCLIKDSKAKSLGNLGDADTEHYAASARAFGAAFPKASMIVMSHSAPDSRAAITHTARMADKLR
Consider B2, for which, in series [2], the kcat is 187 ± 13 s⁻¹ and the kcat/Km is 4.16e+06 M⁻¹ s⁻¹. Further, in series [3], the turnover number (kcat) turned out to be 84 ± 11 s⁻¹.
